One substance from article PMC7347944 can be followed below.

Assay [1] deals with huPrP(23−144) (human) (UniProt P04156). Description: NMR titration.
For assay [2] the target is unchanged. The experiment in a line: co-sedimentation.

Values joined by “and” are separate entries in the source; they are usually repeats but may differ in a detail not shown here. Equal entries are not always repeated.

As for “α-synuclein oligomers (from UniProt P37840 1-140) (complex)”, in the assay with huPrP(23−144) (human) [1], the stoichiometry N (αSyn:huPrP molar ratio) is 1.45 and 0.92. The same substance yielded a stoichiometry N (αSyn:huPrP(23−144)) in the assay with huPrP(23−144) (human) [2] of 0.96.
